Data taken from US20250296971A1, “GASTRIC INHIBITORY PEPTIDE RECEPTOR LIGANDS” (priority 2021, published 2025).
*1 amine or outer side, *2 acyl side, *3 side chain or, on linkers, in order; H or OH if unused. Bridges are numbered along the chain shown (N, C = ends). Primed or numbered codes have the meaning given here. Where no end group is shown, it is not given here. Side-chain parts run from the residue outwards. [ ]: non-standard residue; d: D form. The star is where a group is joined. NOPO = NOPO chelator, O=C(CCP(=O)(O)CN1CCN(CP(=O)(O)CO)CCN(CP(=O)(O)CO)CC1)*; (dE)(AGLU) = D-glutamic acid bearing 1-amino-1-deoxy-D-glucitol; 2,6‑lutidylidene = 2Lut, Cys-Cys crosslink via 2,6-lutidylidene; APAc″ = 4-amino-1-carboxymethylpiperidine, NC1CCN(CC(=O)*)CC1; dE(AGLU) = D-glutamic acid bearing 1-amino-1-deoxy-D-glucitol; Pro(trans-4-NH2) = O=C([C@@H]1C[C@@H](N[*:3])CN1[*:1])[*:2]; DOTA = O=C(O)CN1CCN(CC(=O)O)CCN(CC(=O)*)CCN(CC(=O)O)CC1; NODAGA = O=C(O)CN1CCN(CC(=O)O)CCN(C(CCC(=O)*)C(=O)O)CC1; N4Ac = bis-(2-amino-ethylamine)-methyl-propionic acid; 2Lut = 2,6-lutidylidene bridge between two thiols; N(CH2CH2CO)Gly = O=C(CN(CCC(=O)[*:3])[*:1])[*:2]; Trp(5-Cl) = N[C@@H](Cc1c[nH]c2ccc(Cl)cc12)C(=O)O; Pyridine(2,6-diCH2) = c1cc(C[*:1])nc(C[*:2])c1; 2Lut″ = 2,6-lutidylidene linking two thiols; APAc = 4-amino-1-carboxymethylpiperidine; mXylylene = c1cc(C[*:1])cc(C[*:2])c1; Glutaryl = O=C(CCCC(=O)[*:2])[*:1]; PEG6 = NCCOCCOCCOCCOCCOCCOCCC(=O)O; AGLU = 1-amino-1-deoxy-D-glucitol; Hyp = O=C(O)[C@@H]1C[C@@H](O)CN1; pS = N[C@@H](COP(=O)(O)O)C(=O)O; dGlu(AGLU) = not defined here; Aic = NC1(C(=O)O)Cc2ccccc2C1; hCys = N[C@@H](CCS)C(=O)O; hSer = N[C@@H](CCO)C(=O)O; Ac5c = NC1(C(=O)O)CCCC1; Api = NC1(C(=O)O)CCNCC1; Dab = NCC[C@H](N)C(=O)O; Thp = NC1(C(=O)O)CCOCC1; AEEA = NCCOCCOCC(=O)O; Aib = CC(C)(N)C(=O)O

B1: Ac-Asn-Trp-5Clw-Hyp-Glu-leu-[Cys(2Lut)-Thp-Leu-Ile-Cys]-NH2 (peptide)
peptide: Ac-NW[Trp(5-Cl)][Hyp]E[dL]C[Thp]LIC-NH2
modifications: linker 7-11 via Pyridine(2,6-diCH2)
SMILES: CC[C@H](C)[C@@H]1NC(=O)[C@H](CC(C)C)NC(=O)C2(CCOCC2)NC(=O)[C@@H](NC(=O)[C@@H](CC(C)C)NC(=O)[C@H](CCC(=O)O)NC(=O)[C@@H]2C[C@@H](O)CN2C(=O)[C@H](Cc2c[nH]c3ccc(Cl)cc23)NC(=O)[C@H](Cc2c[nH]c3ccccc23)NC(=O)[C@H](CC(N)=O)NC(C)=O)CSCc2cccc(n2)CSC[C@@H](C(N)=O)NC1=O
B2: Ac-Glu-Trp-5Clw-Hyp-Glu-leu-[Cys(2Lut)-Thp-Leu-Ile-Cys]-NH2 (peptide)
peptide: Ac-EW[Trp(5-Cl)][Hyp]E[dL]C[Thp]LIC-NH2
modifications: linker 7-11 via Pyridine(2,6-diCH2)
SMILES: CC[C@H](C)[C@@H]1NC(=O)[C@H](CC(C)C)NC(=O)C2(CCOCC2)NC(=O)[C@@H](NC(=O)[C@@H](CC(C)C)NC(=O)[C@H](CCC(=O)O)NC(=O)[C@@H]2C[C@@H](O)CN2C(=O)[C@H](Cc2c[nH]c3ccc(Cl)cc23)NC(=O)[C@H](Cc2c[nH]c3ccccc23)NC(=O)[C@H](CCC(=O)O)NC(C)=O)CSCc2cccc(n2)CSC[C@@H](C(N)=O)NC1=O
B3: Ac-Hse-Trp-5Clw-Hyp-Glu-leu-[Cys(2Lut)-Thp-Leu-Ile-Cys]-NH2 (peptide)
peptide: Ac-[hSer]W[Trp(5-Cl)][Hyp]E[dL]C[Thp]LIC-NH2
modifications: linker 7-11 via Pyridine(2,6-diCH2)
SMILES: CC[C@H](C)[C@@H]1NC(=O)[C@H](CC(C)C)NC(=O)C2(CCOCC2)NC(=O)[C@@H](NC(=O)[C@@H](CC(C)C)NC(=O)[C@H](CCC(=O)O)NC(=O)[C@@H]2C[C@@H](O)CN2C(=O)[C@H](Cc2c[nH]c3ccc(Cl)cc23)NC(=O)[C@H](Cc2c[nH]c3ccccc23)NC(=O)[C@H](CCO)NC(C)=O)CSCc2cccc(n2)CSC[C@@H](C(N)=O)NC1=O
B4: HO-Succinyl-Trp-5Clw-Pro-Glu-leu-[Cys(3MeBn)-Aib-Leu-Ile-Cys]-NH2 (peptide)
peptide: W[Trp(5-Cl)]PE[dL]C[Aib]LIC-NH2
modifications: linker 6-10 via mXylylene; not fully specified (N-terminus); printed as HO-Succinyl-Trp-5Clw-Pro-Glu-leu-[Cys(3MeBn)-Aib-Leu-Ile-Cys]-NH2
B5: HO-Succinyl-Trp-5Clw-Pro-Glu-leu-[Cys(3MeBn)-Thp-Leu-Ile-Cys]-NH2 (peptide)
peptide: W[Trp(5-Cl)]PE[dL]C[Thp]LIC-NH2
modifications: linker 6-10 via mXylylene; not fully specified (N-terminus); printed as HO-Succinyl-Trp-5Clw-Pro-Glu-leu-[Cys(3MeBn)-Thp-Leu-Ile-Cys]-NH2
B6: Ac-Pse-Trp-5Clw-Hyp-Glu-leu-[Cys(2Lut)-Thp-Leu-Ile-Cys]-NH2 (peptide)
peptide: Ac-[pS]W[Trp(5-Cl)][Hyp]E[dL]C[Thp]LIC-NH2
modifications: linker 7-11 via Pyridine(2,6-diCH2)
SMILES: CC[C@H](C)[C@@H]1NC(=O)[C@H](CC(C)C)NC(=O)C2(CCOCC2)NC(=O)[C@@H](NC(=O)[C@@H](CC(C)C)NC(=O)[C@H](CCC(=O)O)NC(=O)[C@@H]2C[C@@H](O)CN2C(=O)[C@H](Cc2c[nH]c3ccc(Cl)cc23)NC(=O)[C@H](Cc2c[nH]c3ccccc23)NC(=O)[C@H](COP(=O)(O)O)NC(C)=O)CSCc2cccc(n2)CSC[C@@H](C(N)=O)NC1=O
B7: DOTA-O2Oc-glu(AGLU)-Asp-Trp-5Clw-Tap-Glu-leu-[Cys(2Lut)-Thp-Leu-Ile-Cys]-APAc-glu(AGLU)-NH2 (peptide)
peptide: DW[Trp(5-Cl)][Pro(trans-4-NH2)]E[dL]C[Thp]LIC-{APAc-(dE)(AGLU)-NH2}
modifications: linker 7-11 via Pyridine(2,6-diCH2); not fully specified (N-terminus); printed as DOTA-O2Oc-glu(AGLU)-Asp-Trp-5Clw-Tap-Glu-leu-[Cys(2Lut)-Thp-Leu-Ile-Cys]-APAc-glu(AGLU)-NH2

These binders were tested against human Gastric Inhibitory Peptide Receptor (human) (UniProt P48546) (assay: FACS competition with GIP-057 on CHO-K1-hGIPR cells; pIC50 category A: >8.0).
Chain of human Gastric Inhibitory Peptide Receptor (human) (P48546 22-466 limits assumed): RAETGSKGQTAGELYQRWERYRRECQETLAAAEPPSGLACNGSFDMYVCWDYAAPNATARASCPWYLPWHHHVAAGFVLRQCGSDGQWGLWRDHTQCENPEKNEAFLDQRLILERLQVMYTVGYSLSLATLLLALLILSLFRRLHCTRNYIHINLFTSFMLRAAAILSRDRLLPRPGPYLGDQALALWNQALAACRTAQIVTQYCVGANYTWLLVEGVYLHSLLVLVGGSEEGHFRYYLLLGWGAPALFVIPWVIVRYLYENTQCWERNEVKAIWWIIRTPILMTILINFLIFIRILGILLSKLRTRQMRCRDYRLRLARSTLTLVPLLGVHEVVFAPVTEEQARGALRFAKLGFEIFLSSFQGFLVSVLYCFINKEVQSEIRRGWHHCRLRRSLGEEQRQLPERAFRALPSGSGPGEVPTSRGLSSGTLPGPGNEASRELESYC

pIC50, > 8 pic50:
B1
B2
Ac-DW[Trp(5-Cl)][Hyp]D[dL]C[Thp]LIC-NH2 (linker 7-11 via Pyridine(2,6-diCH2)) [Ac-Asp-Trp-5Clw-Hyp-Asp-leu-[Cys(2Lut)-Thp-Leu-Ile-Cys]-NH2]
Ac-DW[Trp(5-Cl)][Hyp]Q[dL]C[Thp]LIC-NH2 (linker 7-11 via Pyridine(2,6-diCH2)) [Ac-Asp-Trp-5Clw-Hyp-Gln-leu-[Cys(2Lut)-Thp-Leu-Ile-Cys]-NH2]
B3
Ac-DW[Trp(5-Cl)][N(CH2CH2CO)Gly]E[dL]C[Thp]LIC-NH2 (linker 7-11 via Pyridine(2,6-diCH2)) [Ac-Asp-Trp-5Clw-Nglu-Glu-leu-[Cys(2Lut)-Thp-Leu-Ile-Cys]-NH2]
B4
B5
{DOTA-dE(AGLU)}-DW[Trp(5-Cl)][Pro(trans-4-NH2)]E[dL]C[Thp]LIC-{APAc-dE(AGLU)-NH2} (linker 7-11 via Pyridine(2,6-diCH2)) [DOTA-glu(AGLU)-Asp-Trp-5Clw-Tap-Glu-leu-[Cys(2Lut)-Thp-Leu-Ile-Cys]-APAc-glu(AGLU)-NH2]
Ac-DW[Trp(5-Cl)][Hyp]E[dL][hCys][Thp]LIC-NH2 (linker 7-11 via Pyridine(2,6-diCH2)) [Ac-Asp-Trp-5Clw-Hyp-Glu-leu-[Hcy(2Lut)-Thp-Leu-Ile-Cys]-NH2]
Ac-DW[Trp(5-Cl)][Hyp]E[dL]C[Thp]LI[hCys]-NH2 (linker 7-11 via Pyridine(2,6-diCH2)) [Ac-Asp-Trp-5Clw-Hyp-Glu-leu-[Cys(2Lut)-Thp-Leu-Ile-Hcy]-NH2]
Ac-DW[Trp(5-Cl)][Hyp]E[dL][hCys][Thp]LI[hCys]-NH2 (linker 7-11 via Pyridine(2,6-diCH2)) [Ac-Asp-Trp-5Clw-Hyp-Glu-leu-[Hcy(2Lut)-Thp-Leu-Ile-Hcy]-NH2]
Ac-DW[Trp(5-Cl)][Hyp]E[dL]C[Ac5c]LIC-NH2 (linker 7-11 via Pyridine(2,6-diCH2)) [Ac-Asp-Trp-5Clw-Hyp-Glu-leu-[Cys(2Lut)-Eca-Leu-Ile-Cys]-NH2]
Ac-QW[Trp(5-Cl)][Hyp]E[dL]C[Thp]LIC-NH2 (linker 7-11 via 2Lut″) [Ac-Gln-Trp-5Clw-Hyp-Glu-leu-[Cys(2Lut)-Thp-Leu-Ile-Cys]-NH2]
Ac-DW[Trp(5-Cl)][Hyp]N[dL]C[Thp]LIC-NH2 (linker 7-11 via Pyridine(2,6-diCH2)) [Ac-Asp-Trp-5Clw-Hyp-Asn-leu-[Cys(2Lut)-Thp-Leu-Ile-Cys]-NH2]
Ac-DW[Trp(5-Cl)][Hyp]E[dL]C[Aic]LIC-NH2 (linker 7-11 via Pyridine(2,6-diCH2)) [Ac-Asp-Trp-5Clw-Hyp-Glu-leu-[Cys(2Lut)-Aic-Leu-Ile-Cys]-NH2]
B6
B7
{DOTA-dGlu(AGLU)-PEG6}-DW[Trp(5-Cl)][Pro(trans-4-NH2)]E[dL]C[Thp]LIC-{APAc-dGlu(AGLU)-NH2} (linker 7-11 via 2Lut; reading uncertain) [DOTA-glu(AGLU)-PEG6-Asp-Trp-5Clw-Tap-Glu-leu-[Cys(2Lut)-Thp-Leu-Ile-Cys]-APAc-glu(AGLU)-NH2]
{DOTA-dGlu(AGLU)-AEEA}-DW[Trp(5-Cl)][Pro(trans-4-NH2)]E[dL]C[Thp]LIC-{APAc-dGlu(AGLU)-NH2} (linker 7-11 via 2Lut; reading uncertain) [DOTA-glu(AGLU)-O2Oc-Asp-Trp-5Clw-Tap-Glu-leu-[Cys(2Lut)-Thp-Leu-Ile-Cys]-APAc-glu(AGLU)-NH2]
W[Trp(5-Cl)][Pro(trans-4-NH2)]E[dL]C[Api](DOTA)LIC-{APAc-dE(AGLU)-NH2} (linker 6-10 via 2Lut; not fully specified (N-terminus)) [HO-Succinyl-Trp-5Clw-Tap-Glu-leu-[Cys(2Lut)-Apc(DOTA)-Leu-Ile-Cys]-APAc-glu(AGLU)-NH2]
{AGLU-Glutaryl}-DW[Trp(5-Cl)][Pro(trans-4-NH2)]E[dL]CK(DOTA)LIC-{APAc-dE(AGLU)-NH2} (linker 7-11 via 2,6‑lutidylidene) [AGLU-Glutar-Asp-Trp-5Clw-Tap-Glu-leu-[Cys(2Lut)-Lys(DOTA)-Leu-Ile-Cys]-APAc-glu(AGLU)-NH2]
{AGLU-Glutaryl}-DW[Trp(5-Cl)][Pro(trans-4-NH2)]E[dL]C[Dab](DOTA)LIC-{APAc-dE(AGLU)-NH2} (linker 7-11 via Pyridine(2,6-diCH2)) [AGLU-Glutar-Asp-Trp-5Clw-Tap-Glu-leu-[Cys(2Lut)-Dab(DOTA)-Leu-Ile-Cys]-APAc-glu(AGLU)-NH2]
{AGLU-Glutaryl}-DW[Trp(5-Cl)][Pro(trans-4-NH2)]E[dL]C[Api](NODAGA)LIC-{APAc-dE(AGLU)-NH2} (linker 7-11 via Pyridine(2,6-diCH2)) [AGLU-Glutar-Asp-Trp-5Clw-Tap-Glu-leu-[Cys(2Lut)-Apc(NODAGA)-Leu-Ile-Cys]-APAc-glu(AGLU)-NH2]
{AGLU-Glutaryl}-DW[Trp(5-Cl)][Pro(trans-4-NH2)]E[dL]C[Api](NOPO)LIC-{APAc-dE(AGLU)-NH2} (linker 7-11 via Pyridine(2,6-diCH2)) [AGLU-Glutar-Asp-Trp-5Clw-Tap-Glu-leu-[Cys(2Lut)-Apc(NOPO)-Leu-Ile-Cys]-APAc-glu(AGLU)-NH2]
{AGLU-Glutaryl}-DW[Trp(5-Cl)][Pro(trans-4-NH2)]E[dL]C[Api](N4Ac)LIC-{APAc-dE(AGLU)-NH2} (linker 7-11 via Pyridine(2,6-diCH2)) [AGLU-Glutar-Asp-Trp-5Clw-Tap-Glu-leu-[Cys(2Lut)-Apc(N4Ac)-Leu-Ile-Cys]-APAc-glu(AGLU)-NH2]
{AGLU-Glutaryl}-DW[Trp(5-Cl)][Pro(trans-4-NH2)]E[dL]C[Api]([Gly-NODAGA])LIC-{APAc-dE(AGLU)-NH2} (linker 7-11 via Pyridine(2,6-diCH2)) [AGLU-Glutar-Asp-Trp-5Clw-Tap-Glu-leu-[Cys(2Lut)-Apc(NODAGA-Gly)-Leu-Ile-Cys]-APAc-glu(AGLU)-NH2]
{AGLU-Glutaryl-APAc″}-DW[Trp(5-Cl)][Hyp]E[dL]C[Api](DOTA)LIC-{dE(AGLU)-NH2} (linker 7-11 via Pyridine(2,6-diCH2)) [AGLU-Glutar-APAc-Asp-Trp-5Clw-Hyp-Glu-leu-[Cys(2Lut)-Apc(DOTA)-Leu-Ile-Cys]-glu(AGLU)-NH2]
{AGLU-Glutaryl}-[hSer]W[Trp(5-Cl)][Pro(trans-4-NH2)]E[dL]C[Api](DOTA)LIC-{APAc-dE(AGLU)-NH2} (linker 7-11 via Pyridine(2,6-diCH2)) [AGLU-Glutar-Hse-Trp-5Clw-Tap-Glu-leu-[Cys(2Lut)-Apc(DOTA)-Leu-Ile-Cys]-APAc-glu(AGLU)-NH2]
{DOTA-dE(AGLU)}-DW[Trp(5-Cl)][Hyp]E[dL]C[Thp]LIC-{APAc-dE(AGLU)-NH2} (linker 7-11 via Pyridine(2,6-diCH2)) [DOTA-glu(AGLU)-Asp-Trp-5Clw-Hyp-Glu-leu-[Cys(2Lut)-Thp-Leu-Ile-Cys]-APAc-glu(AGLU)-NH2]
